Reference: patent US20230348603A1 (VERSEAU THERAPEUTICS, published 2023)

Columns and labels:
Human VSIG4-L-Fc [1] = target: T1, Human VSIG4-L-Fc (human); experiment: ligand blocking of iC3b, IgG
T1 construct: also called hVSIG4-L-Fc; hVSIG4-L

[2] = target: T2, Cynomolgus Monkey VSIG4-L-His (cynomolgus monkey); experiment: BLI, IgG on AHC sensor, antigen 100 nM
T2 construct: ECD with His tag; also called cyVSIG4-L; cyno VSIG4-L-His
T2 chain: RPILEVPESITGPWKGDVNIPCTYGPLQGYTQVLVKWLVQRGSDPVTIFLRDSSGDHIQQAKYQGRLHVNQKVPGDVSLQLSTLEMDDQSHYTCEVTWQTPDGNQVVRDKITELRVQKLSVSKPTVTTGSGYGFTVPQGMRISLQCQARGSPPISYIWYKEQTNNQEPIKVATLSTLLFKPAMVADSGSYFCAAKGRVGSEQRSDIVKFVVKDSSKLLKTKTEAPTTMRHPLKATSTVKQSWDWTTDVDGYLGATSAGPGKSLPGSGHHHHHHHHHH

Human VSIG4-L-His [3] = target: T3, Human VSIG4-L-His (human, UniProt Q9Y279 20-283); experiment: BLI, IgG on AHC sensor, antigen 100 nM
T3 construct: long isoform ECD with His tag; also called hVSIG4-L
T3 sequence: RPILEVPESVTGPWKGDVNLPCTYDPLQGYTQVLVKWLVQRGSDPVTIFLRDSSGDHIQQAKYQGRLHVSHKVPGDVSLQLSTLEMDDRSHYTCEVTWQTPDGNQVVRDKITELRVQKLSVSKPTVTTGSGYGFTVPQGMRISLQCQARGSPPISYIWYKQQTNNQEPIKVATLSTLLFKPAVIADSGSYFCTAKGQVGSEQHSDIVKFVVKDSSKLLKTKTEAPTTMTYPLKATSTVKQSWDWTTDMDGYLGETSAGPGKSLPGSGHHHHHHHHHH

[4] = target: T2, Cynomolgus Monkey VSIG4-L-His; experiment: BLI (Octet), IgG on AHC sensor, antigen 100 nM
Human VSIG4-L-His [5] = target: T3, Human VSIG4-L-His; experiment: BLI (Octet), IgG on AHC sensor, antigen 100 nM
Human VSIG4-S-His [6] = target: T4, Human VSIG4-S-His (human, UniProt Q9Y279 20-283); experiment: BLI (Octet), IgG on AHC sensor
T4 construct: short isoform ECD with His tag; also called hVSIG4-S; VISG4-S-His
T4 sequence: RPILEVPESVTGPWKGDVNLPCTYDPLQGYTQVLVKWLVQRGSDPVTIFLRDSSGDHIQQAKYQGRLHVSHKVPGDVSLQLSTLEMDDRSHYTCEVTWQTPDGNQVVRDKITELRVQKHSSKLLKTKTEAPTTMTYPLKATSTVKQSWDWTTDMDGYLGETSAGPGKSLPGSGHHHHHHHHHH

[7] = target: T5, Human VSIG4-L-CHO (human VSIG4 long isoform on CHO-K1 cells) (human, UniProt Q9Y279 20-399); experiment: flow cytometry (FJB), 200 nM mAb, huVSIG4-L CHO-K1 over parental CHO-K1
T5 construct: also called hVSIG4-L (flow cytometry)
T5 sequence: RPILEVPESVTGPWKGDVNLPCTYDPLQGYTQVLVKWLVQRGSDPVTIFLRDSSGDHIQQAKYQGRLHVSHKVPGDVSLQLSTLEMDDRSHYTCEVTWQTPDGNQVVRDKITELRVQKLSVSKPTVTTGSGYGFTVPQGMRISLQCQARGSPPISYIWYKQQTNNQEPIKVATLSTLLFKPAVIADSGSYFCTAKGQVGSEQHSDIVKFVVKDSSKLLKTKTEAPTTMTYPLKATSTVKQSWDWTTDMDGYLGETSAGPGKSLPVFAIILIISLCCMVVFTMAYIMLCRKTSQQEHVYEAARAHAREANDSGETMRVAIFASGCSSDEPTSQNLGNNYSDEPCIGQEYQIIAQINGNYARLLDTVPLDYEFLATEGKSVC

[8] = target: T5, Human VSIG4-L-CHO (human VSIG4 long …); experiment: flow cytometry, CHO-K1 cells expressing hVSIG4-L
Human VSIG4-L-Fc [9] = target: T1, Human VSIG4-L-Fc; experiment: ligand competition ELISA (FJB), blocked ligand C3b
Human VSIG4-L-Fc [10] = target: T1, Human VSIG4-L-Fc; experiment: BLI binning on hVSIG4-L-Fc, competitor 15A06 first;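 note: normalized to binding of second antibody without first competitor antibody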
Human VSIG4-L-Fc [11] = target: T1, Human VSIG4-L-Fc; experiment: BLI binning on hVSIG4-L-Fc, competitor 14C05 first;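 note: normalized to binding of second antibody without first competitor antibody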
Human VSIG4-L-Fc [12] = target: T1, Human VSIG4-L-Fc; experiment: BLI binning on hVSIG4-L-Fc, competitor 12A08 first;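 note: normalized to binding of second antibody without first competitor antibody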
Human VSIG4-L-Fc [13] = target: T1, Human VSIG4-L-Fc; experiment: BLI binning on hVSIG4-L-Fc, competitor 16E03 first;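 note: normalized to binding of second antibody without first competitor antibody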
Human VSIG4-S-Fc = target: T6, Human VSIG4-S-Fc (human); experiment: ELISA, IgG 50 nM on coated antigen;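 note: Mouse-human chimeric IgG4 antibodies incubated 1 h on plate-coated VSIG4 proteins, bound IgG detected with HRP-labelled anti-human IgG, irrelevant antibody and protein as specificity controls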
T6 construct: short isoform ECD fused to human Fc1; also called hVSIG4-S

[14] = target: T2, Cynomolgus Monkey VSIG4-L-His; experiment: ELISA, IgG 50 nM on coated antigen;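 note: Mouse-human chimeric IgG4 antibodies incubated 1 h on plate-coated VSIG4 proteins, bound IgG detected with HRP-labelled anti-human IgG, irrelevant antibody and protein as specificity controls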
Mouse VSIG4-His = target: T7, Mouse VSIG4-His (mouse); experiment: ELISA, IgG 50 nM on coated antigen;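 note: Mouse-human chimeric IgG4 antibodies incubated 1 h on plate-coated VSIG4 proteins, bound IgG detected with HRP-labelled anti-human IgG, irrelevant antibody and protein as specificity controls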
T7 construct: ECD with His tag; also called mVSIG4
T7 chain: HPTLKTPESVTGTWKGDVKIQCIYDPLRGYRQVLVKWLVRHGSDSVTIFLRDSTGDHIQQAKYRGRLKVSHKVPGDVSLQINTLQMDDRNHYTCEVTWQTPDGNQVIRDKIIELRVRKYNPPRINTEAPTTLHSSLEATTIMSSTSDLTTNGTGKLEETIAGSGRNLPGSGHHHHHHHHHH

Human VSIG4-L-Fc [15] = target: T1, Human VSIG4-L-Fc; experiment: ELISA, IgG 50 nM on coated antigen;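 note: Mouse-human chimeric IgG4 antibodies incubated 1 h on plate-coated VSIG4 proteins, bound IgG detected with HRP-labelled anti-human IgG, irrelevant antibody and protein as specificity controls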
Human VSIG4-L-Fc [16] = target: T1, Human VSIG4-L-Fc; experiment: BLI binning on hVSIG4-L-Fc, competitor 12A12 first;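 note: normalized to binding of second antibody without first competitor antibody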
Human VSIG4-L-Fc [17] = target: T1, Human VSIG4-L-Fc; experiment: ligand blocking of C3b, IgG
Human VSIG4-L-Fc [18] = target: T1, Human VSIG4-L-Fc; experiment: BLI binning on hVSIG4-L-Fc, competitor 16E10 first;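 note: normalized to binding of second antibody without first competitor antibody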
[19] = target: T5, Human VSIG4-L-CHO (human VSIG4 long …); experiment: flow cytometry (FJB), 200 nM mAb, huVSIG4-L CHO-K1 cells
Human VSIG4-L-Fc [20] = target: T1, Human VSIG4-L-Fc; experiment: ligand competition ELISA (FJB), blocked ligand iC3b
Human VSIG4-L-Fc [21] = target: T1, Human VSIG4-L-Fc; experiment: BLI binning on hVSIG4-L-Fc, competitor 15C03 first;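 note: normalized to binding of second antibody without first competitor antibody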
Human VSIG4-L-Fc [22] = target: T1, Human VSIG4-L-Fc; experiment: BLI binning on hVSIG4-L-Fc, competitor 15C04 first;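 note: normalized to binding of second antibody without first competitor antibody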
Human VSIG4-L-Fc [23] = target: T1, Human VSIG4-L-Fc; experiment: BLI binning on hVSIG4-L-Fc, competitor 14D12 first;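 note: normalized to binding of second antibody without first competitor antibody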
Human VSIG4-L-Fc [24] = target: T1, Human VSIG4-L-Fc; experiment: BLI binning on hVSIG4-L-Fc, competitor 13H11 first;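 note: normalized to binding of second antibody without first competitor antibody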
[25] = target: T2, Cynomolgus Monkey VSIG4-L-His; experiment: SPR (FJB)
Human VSIG4-S-His [26] = target: T4, Human VSIG4-S-His; experiment: BLI (Octet), IgG on AHC sensor, antigen 100 nM
Human VSIG4-L-Fc [27] = target: T1, Human VSIG4-L-Fc; experiment: BLI cross-blocking on hVSIG4-L-Fc, competitor 16G02 first
Human VSIG4-L-Fc [28] = target: T1, Human VSIG4-L-Fc; experiment: BLI cross-blocking on hVSIG4-L-Fc, competitor 12A12 first
Human VSIG4-L-Fc [29] = target: T1, Human VSIG4-L-Fc; experiment: BLI cross-blocking on hVSIG4-L-Fc, competitor 14C05 first
Human VSIG4-L-His [30] = target: T3, Human VSIG4-L-His; experiment: SPR (FJB)

T6 sequence (chain, as listed by the source limits assumed): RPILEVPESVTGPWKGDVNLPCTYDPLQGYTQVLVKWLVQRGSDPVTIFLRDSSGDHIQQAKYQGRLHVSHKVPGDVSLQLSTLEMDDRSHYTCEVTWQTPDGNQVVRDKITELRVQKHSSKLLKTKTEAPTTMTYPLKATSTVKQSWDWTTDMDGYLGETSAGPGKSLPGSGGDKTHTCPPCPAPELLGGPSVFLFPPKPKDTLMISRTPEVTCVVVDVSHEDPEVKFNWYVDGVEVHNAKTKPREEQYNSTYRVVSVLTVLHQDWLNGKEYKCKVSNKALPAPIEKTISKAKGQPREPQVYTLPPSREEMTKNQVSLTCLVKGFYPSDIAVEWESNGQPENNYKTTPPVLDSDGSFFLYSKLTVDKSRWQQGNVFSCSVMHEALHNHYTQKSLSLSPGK

B1: 13H11 mouse/human chimeric IgG4 (S228P) kappa (antibody, V domains shown)
VH: QIQLVQSGPELKKPGETVKISCKASGYTFENFGMNWVKQAPGKGLKWMGWINTYTGEATYADDFKGRFAFSLETSASTAYLQINNLKNEDTATYFCARDGGFRHFDVWGAGTTVTVSS
VL: ETTVTQSPASLSVATGEKVTIRCITSTDIDDDMNWYQQKPGEPPKLLISEGNTLRPGVPSRFSSSGYGTDFVFTIENMLSEDVADYYCLQSDNLPLTFGAGTKLELKR
Human VSIG4-L-Fc [1]
  Percent Blocking iC3b: 78%
[2]
  KD relative to parental chimera: 1 fold
Human VSIG4-L-His [3]
  KD relative to parental chimera: 1 fold
[4]
  Kd: 20.3 nM
Human VSIG4-L-His [5]
  Kd: 50.6 nM
Human VSIG4-S-His [6]
  binding result: no binding (tested: 100 nM)
[7]
  Binding (200 nM) Fold-Over-Parental: 140 fold
[8]
  EC50: 1.2 nM
Human VSIG4-L-Fc [9]
  IC50: ~7 nM
Human VSIG4-L-Fc [10]
  normalized maximum binding nm shift: 0.51 normalized
Human VSIG4-L-Fc [11]
  normalized maximum binding nm shift: 0.74 normalized
Human VSIG4-L-Fc [12]
  normalized maximum binding nm shift: 0.7 normalized
Human VSIG4-L-Fc [13]
  normalized maximum binding nm shift: 0.72 normalized
Human VSIG4-S-Fc
  ELISA OD450: 0.44 OD450
[14]
  ELISA OD450: 4.37 OD450
Mouse VSIG4-His
  ELISA OD450: 0.048 OD450
Human VSIG4-L-Fc [15]
  ELISA OD450: 4.27 OD450
Human VSIG4-L-Fc [16]
  normalized maximum binding nm shift: 0.74 normalized
Human VSIG4-L-Fc [17]
  Percent Blocking C3b: 75%
Human VSIG4-L-Fc [18]
  normalized maximum binding nm shift: 0.95 normalized
[19]
  Binding (200 nM) MFI: 54300 MFI
Human VSIG4-L-Fc [20]
  IC50: 440 nM
Human VSIG4-L-Fc [21]
  normalized maximum binding nm shift: 0.86 normalized
Human VSIG4-L-Fc [22]
  normalized maximum binding nm shift: 0.68 normalized
Human VSIG4-L-Fc [23]
  normalized maximum binding nm shift: 0.69 normalized
Human VSIG4-L-Fc [24]
  normalized maximum binding nm shift: 0.09 normalized
[25]
  Kd: 20.1 nM

B2: 14C05 mouse/human chimeric IgG4 (S228P) kappa (antibody, V domains shown)
VH: EVMLVESGPELKKPGETVKISCKASGYTFTNYGMNWVKQAPGKGLKWMGSINTYTGEATYADDFKGRFAFSLETSANTAYLQIDNLKNEDTATYFCARGDYYGRGTWFAYWGQGTLVTVSA
VL: ETTVTQSHKFMSTSVGDRVSITCKASQDVSTAVAWYQQKPGQSPKLLIYSASYRYPGVPDRFTGSGSGTDFTFTISSVQAEDLAVYYCQQDYSSPWTFGGGTKLEIKR
[2]
  KD relative to parental chimera: 1 fold
Human VSIG4-L-His [3]
  KD relative to parental chimera: 1 fold
[4]
  Kd: 30 nM
Human VSIG4-S-His [26]
  Kd: 2.69 nM
Human VSIG4-L-His [5]
  Kd: 3.46 nM
[7]
  Binding (200 nM) Fold-Over-Parental: 304 fold
[8]
  EC50: 4.4 nM
Human VSIG4-L-Fc [9]
  IC50: 2.4 nM
Human VSIG4-L-Fc [10]
  normalized maximum binding nm shift: 0.68 normalized
Human VSIG4-L-Fc [11]
  normalized maximum binding nm shift: 0.11 normalized
Human VSIG4-L-Fc [12]
  normalized maximum binding nm shift: 0.75 normalized
Human VSIG4-L-Fc [27]
  binding signal (nm shift): 0.16 nm
Human VSIG4-L-Fc [13]
  normalized maximum binding nm shift: 0.62 normalized
Human VSIG4-S-Fc
  ELISA OD450: 4.36 OD450
[14]
  ELISA OD450: 4.52 OD450
Mouse VSIG4-His
  ELISA OD450: 0.055 OD450
Human VSIG4-L-Fc [15]
  ELISA OD450: 4.51 OD450
Human VSIG4-L-Fc [16]
  normalized maximum binding nm shift: 0.83 normalized
Human VSIG4-L-Fc [28]
  binding signal (nm shift): 0.83 nm
Human VSIG4-L-Fc [17]
  Percent Blocking C3b: 96%
Human VSIG4-L-Fc [18]
  normalized maximum binding nm shift: 0.87 normalized
[19]
  Binding (200 nM) MFI: 109000 MFI
Human VSIG4-L-Fc [29]
  binding signal (nm shift): 0.11 nm
Human VSIG4-L-Fc [21]
  normalized maximum binding nm shift: 0.38 normalized
Human VSIG4-L-Fc [22]
  normalized maximum binding nm shift: 0.76 normalized
Human VSIG4-L-Fc [23]
  normalized maximum binding nm shift: 0.07 normalized
Human VSIG4-L-Fc [24]
  normalized maximum binding nm shift: 0.66 normalized
[25]
  Kd: 5.4 nM
Human VSIG4-L-His [30]
  Kd: 1.7 nM
